This note sets out measurements from PMC5692591.

In assay [1] the target is FpvAI (ferripyoverdine transporter of P. aeruginosa PAO1), recombinant (P. aeruginosa PAO1). Briefly: ITC.
Assay [2] deals with TonB1 periplasmic domain (residues 109–342) (P. aeruginosa). In words: ITC. For orientation: In ITC the heat of successive injections is recorded.
The target in assay [3] is FpvAI (ferripyoverdine transporter of P. aeruginosa PAO1), recombinant (P. aeruginosa PAO1).

As to “N-terminal domain of pyocin S2 (pyoS2^NTD), residues 1–209 (from UniProt Q06584 1-209) (domain or fragment)”, in assay [1], the dissociation constant (Kd) – broadly, a measure of binding affinity in units of concentration – was found to be 0.24 nM; the dH is -15.8 kcal/mol; the stoichiometry N (as a rule, the number of molecules, sites or subunits per partner or assembly) was 0.78 sites. Besides, the dissociation constant Kd in assay [2] amounted to 1000 nM.
For “Δ1–45 pyoS2^NTD (from UniProt Q06584 46-209) (domain or fragment)”, in assay [3], the fold decrease of binding against pyoS2^NTD was 1000 fold.
